{"source": "patent US12297272B2", "about": "“IgG Fc variants for veterinary use” (Elanco US Inc., priority 2017, dated 2025)", "molecules": {"B1": {"name": "equine IgG5 Fc: wild-type equine IgG5 Fc polypeptide (protein)", "chain": "GGPSVFIFPPKPKDVLMISRKPEVTCVVVDLGHDDPDVQFTWFVDGVETHTATTEPKEEQFNSTYRVVSVLPIQHQDWLSGKEFKCSVTSKALPAPVERTISKAKGQLRVPQVYVLAPHPDELAKNTVSVTCLVKDFYPPEIDVEWQSNEHPEPEGKYSTTPAQLNSDGSYFLYSKLSVETSRWKQGESFTCGVMHEAVENHYTQKNVSHSPGK", "modifications": "Wild-type equine IgG5 Fc, Protein A -, C1q -", "notes": "wild-type equine IgG5 Fc polypeptide"}, "B2": {"name": "feline IgG2 Fc: wild-type feline IgG2 Fc polypeptide (protein)", "chain": "PKTASTIESKTGEGPKCPVPEIPGAPSVFIFPPKPKDTLSISRTPEVTCLVVDLGPDDSNVQITWFVDNTEMHTAKTRPREEQFNSTYRVVSVLPILHQDWLKGKEFKCKVNSKSLPSAMERTISKAKGQPHEPQVYVLPPTQEELSENKVSVTCLIKGFHPPDIAVEWEITGQPEPENNYQTTPPQLDSDGTYFLYSRLSVDRSHWQRGNTYTCSVSHEALHSHHTQKSLTQSPGK", "modifications": "Wild-type feline IgG2 Fc, Protein A +, C1q -", "notes": "wild-type feline IgG2 Fc polypeptide"}, "B3": {"name": "equine IgG1 Fc: wild-type equine IgG1 Fc polypeptide (protein)", "chain": "GGPSVFLFPPNPKDTLMITRTPEVTCVVVDVSQENPDVKFNWYMDGVEVRTATTRPKEEQFNSTYRVVSVLRIQHQDWLSGKEFKCKVNNQALPQPIERTITKTKGRSQEPQVYVLAPHPDESKKSKVSVTCLVKDFYPPEINIEWQSNGQPELETKYSTTQAQQDSDGSYFLYSKLSVDRNRWQQGTTFTCGVMHEALHNHYTQKNVSKNPGK", "modifications": "Wild-type equine IgG1 Fc , Protein A +, C1q +", "notes": "wild-type equine IgG1 Fc polypeptide"}, "B4": {"name": "equine IgG2 Fc: wild-type equine IgG2 Fc polypeptide (protein)", "chain 1": "DMSKCPKCPAPELLGGPSVFIFPPNPKDALMISRTPVVTCVVVNLSDQYPDVQFSWYVDNTEVHSAITKQREAQFNSTYRVVSVLPIQHQDWLSGKEFKCSVTNVGVPQPISRAISRGKGPSRVPQVYVLPPHPDELAKSKVSVTCLVKDFYPPDISVEWQSNRWPELEGKYSTTPAQLDGDGSYFLYSKLSLETSRWQQVESFTCAVMHEALHNHFTKTDISESLGK", "chain 2": "GGPSVFIFPPNPKDALMISRTPVVTCVVVNLSDQYPDVQFSWYVDNTEVHSAITKQREAQFNSTYRVVSVLPIQHQDWLSGKEFKCSVTNVGVPQPISRAISRGKGPSRVPQVYVLPPHPDELAKSKVSVTCLVKDFYPPDISVEWQSNRWPELEGKYSTTPAQLDGDGSYFLYSKLSLETSRWQQVESFTCAVMHEALHNHFTKTDISESLGK", "modifications": "Synthetic Variant equine Fc IgG2 (with equine IgG1 hinge), Protein A - , C1q -; Wild-type equine IgG2 Fc, Protein A -, C1q -", "notes": "wild-type equine IgG2 Fc polypeptide"}, "B5": {"name": "equine IgG3 Fc: wild-type equine IgG3 Fc polypeptide (protein)", "chain": "GGPSVFIFPPKPKDVLMITRMPEVTCLVVDVSHDSSDVLFTWYVDGTEVKTAKTMPNEEQNNSTYRVVSVLRIQHQDWLNGKKFKCKVNNQALPAPVERTISKATGQTRVPQVYVLAPHPDELSKNKVSVTCLVKDFYPPDITVEWQSNEHPEPEGKYRTTEAQKDSDGSYFLYSKLTVEKDRWQQGTTFTCVVMHEALHNHVMQKNISKNPGK", "modifications": "Wild-type equine IgG3 Fc, Protein A +, C1q+", "notes": "wild-type equine IgG3 Fc polypeptide"}, "B6": {"name": "feline IgG1a Fc: wild-type feline IgG1a Fc polypeptide (protein)", "chain 1": "RKTDHPPGPKTGEGPKCPPPEMLGGPSIFIFPPKPKDTLSISRTPEVTCLVVDLGPDDSDVQITWFVDNTQVYTAKTSPREEQFNSTYRVVSVLPILHQDWLKGKEFKCKVNSKSLPSPIERTISKAKGQPHEPQVYVLPPAQEELSENKVSVTCLIKSFHPPDIAVEWEITGQPEPENNYRTTPPQLDSDGTYFVYSKLSVDRSHWQRGNTYTCSVSHEALHSHHTQKSLTQSPGK", "chain 2": "B6 chain 1 with T11P, G12C, E13D, G14C", "modifications": "Alternative wild-type feline IgG1a Fc, Protein A +, C1q +; Wild-type feline IgG1a Fc, Protein A +, C1q +", "notes": "wild-type feline IgG1a Fc polypeptide"}, "B7": {"name": "feline IgG1b Fc: wild-type feline IgG1b Fc polypeptide (protein)", "chain 1": "B6 chain 1 with A127D, K158E, S159G, H161Y, P163S, V196L, K199R, H206R", "chain 2": "RKTDHPPGPKPCDCPKCPPPEMLGGPSIFIFPPKPKDTLSISRTPEVTCLVVDLGPDDSDVQITWFVDNTQVYTAKTSPREEQFNSTYRVVSVLPILHQDWLKGKEFKCKVNSKSLPSPIERTISKDKGQPHEPQVYVLPPAQEELSENKVSVTCLIEGFYPSDIAVEWEITGQPEPENNYRTTPPQLDSDGTYFLYSRLSVDRSRWQRGNTYTCSVSHEALHSHHTQKSLTQSPGK", "modifications": "Alternative wild-type feline IgG1b Fc, Protein A +, C1q +; Wild-type feline IgG1b Fc, Protein A +, C1q +", "notes": "wild-type feline IgG1b Fc polypeptide"}, "B8": {"name": "equine IgG4 Fc: wild-type equine IgG4 Fc polypeptide (protein)", "chain": "VGPSVFIFPPKPKDVLMISRTPTVTCVVVDVGHDFPDVQFNWYVDGVETHTATTEPKQEQFNSTYRVVSVLPIQHKDWLSGKEFKCKVNNKALPAPVERTISAPTGQPREPQVYVLAPHRDELSKNKVSVTCLVKDFYPPDIDIEWKSNGQPEPETKYSTTPAQLDSDGSYFLYSKLTVETNRWQQGTTFTCAVMHEALHNHYTEKSVSKSPGK", "modifications": "Wild-type equine IgG4 Fc, Protein A +, C1q +", "notes": "wild-type equine IgG4 Fc polypeptide"}, "B9": {"name": "equine IgG7 Fc: wild-type equine IgG7 Fc polypeptide (protein)", "chain": "B8 chain with F61N, V70I, P72A, K91Q, E98Q, R99K, A103K, R120P, S167G", "modifications": "Wild-type equine IgG7 Fc, Protein A +, C1q +", "notes": "wild-type equine IgG7 Fc polypeptide"}, "B10": {"name": "equine IgG6 Fc: wild-type equine IgG6 Fc polypeptide (protein)", "chain": "GRPSVFIFPPNPKDTLMISRTPEVTCVVVDVSQENPDVKFNWYVDGVEAHTATTKAKEKQDNSTYRVVSVLPIQHQDWRRGKEFKCKVNNRALPAPVERTITKAKGELQDPQVYILAPHPDEVTKNTVSVTCLVKDFYPPDINVEWQSNEEPEPEVKYSTTPAQLDGDGSYFLYSKLTVETDRWEQGESFTCVVMHEAIRHTYRQKSITNFPGK", "modifications": "Wild-type equine IgG6 Fc, Protein A -, C1q -", "notes": "wild-type equine IgG6 Fc polypeptide"}, "B11": {"name": "GLP1-G8/GLP1-2G_III_VARfeIgG2: Formula III GLP1 contiguous polypeptide comprising variant feline IgG2 Fc of SEQ ID NO: 17 (Gly to Cys at position 14) (protein)", "chain": "HGEGTFTSDVSSYLEGQAAKEFIAWLVKGGGGSGGGGSGGGGSGGGGSPKTASTIESKTGECPKCPVPEIPGAPSVFIFPPKPKDTLSISRTPEVTCLVVDLGPDDSNVQITWFVDNTEMHTAKTRPREEQFNSTYRVVSVLPILHQDWLKGKEFKCKVNSKSLPSAMERTISKAKGQPHEPQVYVLPPTQEELSENKVSVTCLIKGFHPPDIAVEWEITGQPEPENNYQTTPPQLDSDGTYFLYSRLSVDRSHWQRGNTYTCSVSHEALHSHHTQKSLTQSPGKGGGGSGGGGHAEGTFTSDVSSYLEGQAAKEFIAWLVKGGG", "modifications": "Synthetic GLP1-G8/GLP1-2G_III_ VARfeIgG2"}}, "note": "Positions count from the first letter of the chain named."}
{"target": "C1q (Homo sapiens, UniProt P02745+P02746+P02747)", "sequence (P02745 23-245)": "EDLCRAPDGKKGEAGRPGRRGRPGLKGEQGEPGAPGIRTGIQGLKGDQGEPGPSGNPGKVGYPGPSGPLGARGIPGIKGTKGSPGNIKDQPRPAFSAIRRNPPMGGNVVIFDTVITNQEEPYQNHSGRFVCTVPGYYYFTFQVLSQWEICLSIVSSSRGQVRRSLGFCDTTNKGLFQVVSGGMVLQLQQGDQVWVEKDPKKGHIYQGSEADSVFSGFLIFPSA", "sequence (P02746 28-253)": "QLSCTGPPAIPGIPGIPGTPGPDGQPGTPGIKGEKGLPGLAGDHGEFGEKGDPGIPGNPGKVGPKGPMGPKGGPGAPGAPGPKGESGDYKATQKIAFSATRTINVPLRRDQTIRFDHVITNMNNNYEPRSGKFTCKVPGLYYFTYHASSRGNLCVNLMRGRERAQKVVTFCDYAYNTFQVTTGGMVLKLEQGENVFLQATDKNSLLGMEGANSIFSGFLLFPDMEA", "sequence (P02747 29-245)": "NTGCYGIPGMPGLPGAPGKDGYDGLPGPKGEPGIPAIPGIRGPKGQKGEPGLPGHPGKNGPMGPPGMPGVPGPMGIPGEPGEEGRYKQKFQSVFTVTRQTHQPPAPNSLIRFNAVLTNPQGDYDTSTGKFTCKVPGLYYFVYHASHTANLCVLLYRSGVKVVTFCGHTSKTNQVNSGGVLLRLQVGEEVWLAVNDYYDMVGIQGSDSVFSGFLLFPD", "experiment": "C1q binding of IgG Fc polypeptides (Octet biolayer interferometry described); on C1q binding: key: (−) denotes low or no measurable binding activity", "settings": "not given", "source_text": "(§1) Binding analysis may be performed using an Octet biosensor."}
{"molecule": "B1", "binding affinity to C1q": "weak or no measurable binding affinity to C1q"}
{"molecule": "B2", "binding affinity to C1q": "weak or no measurable binding affinity to C1q"}
{"molecule": "B3", "binding affinity to C1q": "bind to C1q"}
{"molecule": "B4", "binding affinity to C1q": "weak or no measurable binding affinity to C1q"}
{"molecule": "B5", "binding affinity to C1q": "bind to C1q"}
{"molecule": "B6", "binding affinity to C1q": "bind to C1q"}
{"molecule": "B7", "binding affinity to C1q": "bind to C1q"}
{"molecule": "B8", "binding affinity to C1q": "bind to C1q"}
{"molecule": "B9", "binding affinity to C1q": "bind to C1q"}
{"molecule": "B10", "binding affinity to C1q": "weak or no measurable binding affinity to C1q"}
{"target": "C1q (Homo sapiens, UniProt P02745+P02746+P02747)", "experiment": "C1q binding of IgG Fc polypeptides (Octet biolayer interferometry described); on C1q binding: key: (−) denotes low or no measurable binding activity", "settings": "Wild-type Equine IgG Fc", "source_text": "as §1"}
{"molecule": "B1", "C1q Binding": "−"}
{"molecule": "B4", "C1q Binding": "−"}
{"molecule": "B10", "C1q Binding": "−"}
{"target": "C1q (Homo sapiens, UniProt P02745+P02746+P02747)", "experiment": "C1q binding of IgG Fc polypeptides (Octet biolayer interferometry described); on C1q binding: key: (−) denotes low or no measurable binding activity", "settings": "Wild-type Feline IgG Fc", "source_text": "as §1"}
{"molecule": "B2", "C1q Binding": "−"}
{"tested_on": "not listed separately", "experiment": "Differential scanning fluorimetry, stability at various pH", "type": "physicochemical", "settings": "pH 6; n = 3; 10 μg construct", "source_text": "(§2) Furthermore, differential scanning fluorimetry was used to assess the stability of the contiguous polypeptides at various pH, as reflected by mean melting point temperature (n=3) (Table 9, below). The increased stability of the variant feline IgG2 hinge is most evident at pH 6.", "units": {"Mean Melting Point Temperature (Tm)": "°C"}}
{"molecule": "B11", "Mean Melting Point Temperature (Tm)": 56.9}
{"tested_on": "not listed separately", "experiment": "Differential scanning fluorimetry, stability at various pH", "type": "physicochemical", "settings": "pH 7; n = 3; 10 μg construct", "source_text": "as §2", "units": {"Mean Melting Point Temperature (Tm)": "°C"}}
{"molecule": "B11", "Mean Melting Point Temperature (Tm)": 55}
{"tested_on": "not listed separately", "experiment": "Differential scanning fluorimetry, stability at various pH", "type": "physicochemical", "settings": "pH 8; n = 3; 10 μg construct", "source_text": "as §2", "units": {"Mean Melting Point Temperature (Tm)": "°C"}}
{"molecule": "B11", "Mean Melting Point Temperature (Tm)": 52.5}
{"target": "Protein A (Staphylococcus aureus, UniProt P38507)", "experiment": "not given", "settings": "not given", "experimental": "(§3) In some embodiments, the KD of an IgG Fc polypeptide, such as a variant IgG Fc polypeptide, to Protein A or to C1q or to CD16 is measured by using biolayer interferometry assays using a biosensor, such as an Octet® System (Pall ForteBio LLC, Fremont, CA) according to the supplier's instructions. In brief, biotinylated Protein A or C1q or CD16 is bound to the sensor tip and the association of IgG Fc polypeptide is monitored for a specified time or until steady state is reached. Dissociation may be monitored for a specified time or until steady state is reached. A buffer only blank curve is subtracted to correct for any drift. The data are fit to a 2:1 binding model using ForteBio data analysis software to determine association rate constant (kon), dissociation rate constant (koff), and the Kd. The equilibrium dissociation constant (KD) is calculated as the ratio of koff/kon. The term “kon” refers to the rate constant for association of a molecule X to its partner Y and the term “koff” refers to the rate constant for dissociation of a molecule X or partner Y from the molecule X/partner Y complex.\n(§4) Binding analysis may be performed using an Octet biosensor. Briefly, the target molecule (e.g., Protein A, C1q, CD16, etc.) may be biotinylated and free unreacted biotin removed (e.g., by dialysis). The biotinylated target molecule is captured on streptavidin sensor tips. Association of the target molecule with various concentrations (e.g., 10 μg/mL) of IgG Fc polypeptide is monitored for a specified time or until steady state is reached. Dissociation is monitored for a specified time or until steady state is reached. A buffer only blank curve may be subtracted to correct for any drift. The data are fit to a 1:1 binding model using ForteBio™ data analysis software to determine the kon, koff, and the Kd."}
{"molecule": "B1", "Protein A binding affinity": "weak or no measurable Protein A binding affinity"}
{"molecule": "B2", "Protein A binding affinity": "have Protein A binding affinity"}
{"molecule": "B3", "Protein A binding affinity": "have Protein A binding affinity"}
{"molecule": "B4", "Protein A binding affinity": "weak or no measurable Protein A binding affinity"}
{"molecule": "B5", "Protein A binding affinity": "have Protein A binding affinity"}
{"molecule": "B6", "Protein A binding affinity": "have Protein A binding affinity"}
{"molecule": "B7", "Protein A binding affinity": "have Protein A binding affinity"}
{"molecule": "B8", "Protein A binding affinity": "have Protein A binding affinity"}
{"molecule": "B9", "Protein A binding affinity": "have Protein A binding affinity"}
{"molecule": "B10", "Protein A binding affinity": "weak or no measurable Protein A binding affinity"}
{"target": "Protein A (Staphylococcus aureus, UniProt P38507)", "experiment": "not given", "settings": "Wild-type Equine IgG Fc", "experimental": "as §3, §4"}
{"molecule": "B1", "Protein A Binding": "−"}
{"molecule": "B4", "Protein A Binding": "−"}
{"molecule": "B10", "Protein A Binding": "−"}
